According to publication PMC5704485, “A unique cysteine-rich zinc finger domain present in a majority of class II ribonucleotide reductases mediates catalytic turnover” (The Journal of Biological Chemistry, 2017):
Several values for one entry are separate records, joined by “and”; a condition that tells them apart may be missing. Equal values may be shown once. Blank lines part the entries; values can stand above or below the compound they belong to.

Key:
NrdJdΔCRD = target: T1, NrdJdΔCRD (Stackebrandtia nassauensis, UniProt D3Q6G1); test: effector titration of NDP reductase activity, HPLC; type: biochemical; conditions: half-maximal activation by allosteric effector; range printed for all effectors together; single preferred NDP substrate; AdoCbl; Tris pH 8.0, 20 mM MgCl2, 50 mM DTT, room temperature
T1 construct: gene Snas_4560; catalytic domain, residues 1-714 (codon 715 replaced by stop), C-terminal cysteine-rich domain removed; mainly monomer

[1] = target: T2, NrdJd-wt (Snas 4560), full-length class II RNR (Stackebrandtia nassauensis, UniProt D3Q6G1); test: effector titration of NDP reductase activity, HPLC; type: biochemical; conditions: half-maximal activation by allosteric effector, AdoCbl
T2 construct: gene Snas_4560; monomer/dimer, tetramer/hexamer with dATP or dGTP
T2 sequence (D3Q6G1 1-946): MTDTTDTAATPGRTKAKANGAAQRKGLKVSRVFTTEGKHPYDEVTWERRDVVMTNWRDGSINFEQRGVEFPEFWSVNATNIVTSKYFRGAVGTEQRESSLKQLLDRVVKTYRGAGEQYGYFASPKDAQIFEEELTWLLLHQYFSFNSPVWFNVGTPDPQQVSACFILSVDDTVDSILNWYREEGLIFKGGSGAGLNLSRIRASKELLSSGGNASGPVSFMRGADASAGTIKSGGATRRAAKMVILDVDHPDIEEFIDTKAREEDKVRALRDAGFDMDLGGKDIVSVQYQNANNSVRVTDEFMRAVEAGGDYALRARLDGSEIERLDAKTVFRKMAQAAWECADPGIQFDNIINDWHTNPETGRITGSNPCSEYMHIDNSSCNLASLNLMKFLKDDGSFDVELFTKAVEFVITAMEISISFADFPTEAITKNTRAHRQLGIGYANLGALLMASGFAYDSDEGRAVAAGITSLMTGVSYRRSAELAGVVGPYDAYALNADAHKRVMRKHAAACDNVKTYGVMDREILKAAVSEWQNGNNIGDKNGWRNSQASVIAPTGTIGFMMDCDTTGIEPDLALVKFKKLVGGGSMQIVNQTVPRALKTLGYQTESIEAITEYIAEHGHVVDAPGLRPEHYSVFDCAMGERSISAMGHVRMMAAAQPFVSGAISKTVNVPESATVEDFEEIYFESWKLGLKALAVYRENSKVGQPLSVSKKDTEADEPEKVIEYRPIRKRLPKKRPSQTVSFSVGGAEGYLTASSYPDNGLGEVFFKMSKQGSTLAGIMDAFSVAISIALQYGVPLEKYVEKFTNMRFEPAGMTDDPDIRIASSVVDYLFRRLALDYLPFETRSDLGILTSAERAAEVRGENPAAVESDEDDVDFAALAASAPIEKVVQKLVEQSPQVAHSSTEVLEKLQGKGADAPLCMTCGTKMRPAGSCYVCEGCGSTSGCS

[2] = target: T3, C933A/C370A mixture (mutant mix) of NrdJd (Stackebrandtia nassauensis, UniProt D3Q6G1, C370A/C933A); test: effector titration of CDP reductase activity, HPLC; type: biochemical; conditions: half-maximal activation by allosteric effector; equimolar mixture of two single mutants; substrate CDP; reductant TCEP; AdoCbl; standard assay Tris pH 8.0, 20 mM MgCl2, room temperature
T3 construct: gene Snas_4560; equimolar mixture of two separately purified full-length single mutants (not a double mutant)
T3 sequence (D3Q6G1 entry or part of it C370A): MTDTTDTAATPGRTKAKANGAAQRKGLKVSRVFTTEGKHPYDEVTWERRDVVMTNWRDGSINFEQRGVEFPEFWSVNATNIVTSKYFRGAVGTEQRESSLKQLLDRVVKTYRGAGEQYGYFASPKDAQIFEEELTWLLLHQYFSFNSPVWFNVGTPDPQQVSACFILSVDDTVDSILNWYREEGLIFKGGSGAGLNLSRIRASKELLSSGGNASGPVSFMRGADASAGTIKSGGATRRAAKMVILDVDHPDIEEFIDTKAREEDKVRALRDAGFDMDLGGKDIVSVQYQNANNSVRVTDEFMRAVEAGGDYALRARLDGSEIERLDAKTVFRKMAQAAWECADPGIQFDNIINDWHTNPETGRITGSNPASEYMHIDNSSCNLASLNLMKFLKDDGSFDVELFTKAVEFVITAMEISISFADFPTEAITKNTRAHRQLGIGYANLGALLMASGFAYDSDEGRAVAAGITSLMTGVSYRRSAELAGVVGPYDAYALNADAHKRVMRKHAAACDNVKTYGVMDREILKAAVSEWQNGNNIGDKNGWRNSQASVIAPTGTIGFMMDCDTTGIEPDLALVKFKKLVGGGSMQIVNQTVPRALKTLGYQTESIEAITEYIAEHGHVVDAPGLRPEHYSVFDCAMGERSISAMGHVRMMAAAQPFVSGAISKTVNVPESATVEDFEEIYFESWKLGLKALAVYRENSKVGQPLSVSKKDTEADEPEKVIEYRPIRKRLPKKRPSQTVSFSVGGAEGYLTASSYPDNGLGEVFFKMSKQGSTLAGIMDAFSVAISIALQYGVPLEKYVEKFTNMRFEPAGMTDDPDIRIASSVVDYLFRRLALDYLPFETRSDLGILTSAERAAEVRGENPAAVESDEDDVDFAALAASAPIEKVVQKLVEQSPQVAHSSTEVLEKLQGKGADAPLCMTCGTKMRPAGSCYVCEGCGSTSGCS
T3 sequence (D3Q6G1 entry or part of it C933A): as the sequence (D3Q6G1 entry or part of it C370A) above, with A370C, C933A counted along it

[3] = target: T2, NrdJd-wt (Snas 4560), full-length class II RNR; test: GEMMA oligomerization titration; type: binding; conditions: effector-induced tetramer/hexamer formation; 0.075 mg/ml protein; 40 mM ammonium acetate pH 7.8, equimolar MgCl2; possible further nucleotide site
[4] = target: S. nassauensis NrdJd C933A, C-terminal (CRD) mutant (Stackebrandtia nassauensis)
[5] = target: NrdJd-wt, the full-length version of the Stackebrandtia nassauensis class II ribonucleotide reductase (Stackebrandtia nassauensis); test: GEMMA (gas phase electrophoretic macromolecule analysis); 0.075 mg/ml NrdJd-wt with dATP (100 μM, and a titration of dATP), equimolar MgCl2; 40 mM ammonium acetate pH 7.8, 0.005% Tween 20, 0.2 mM DTT
[6] = target: NrdJd-wt, the full-length version of the Stackebrandtia nassauensis class II ribonucleotide reductase (Stackebrandtia nassauensis); test: SEC; analytical SEC, Superdex 200 Increase 3.2, 25 μl of 1.0 mg/ml protein, 50 mM Tris pH 7.5, 300 mM NaCl, 1 mM DTT, in the presence or absence of 100 μM effector (dATP)
[7] = target: NrdJd-wt, the full-length version of the Stackebrandtia nassauensis class II ribonucleotide reductase (Stackebrandtia nassauensis); test: GEMMA (gas phase electrophoretic macromolecule analysis); 0.075 mg/ml NrdJd-wt with dCTP, equimolar MgCl2; 40 mM ammonium acetate pH 7.8, 0.005% Tween 20, 0.2 mM DTT
[8] = target: NrdJd-wt, the full-length version of the Stackebrandtia nassauensis class II ribonucleotide reductase (Stackebrandtia nassauensis); test: GEMMA (gas phase electrophoretic macromolecule analysis); 0.075 mg/ml NrdJd-wt, no effector; 40 mM ammonium acetate pH 7.8, 0.005% Tween 20, 0.2 mM DTT
[9] = target: NrdJd-wt, the full-length version of the Stackebrandtia nassauensis class II ribonucleotide reductase (Stackebrandtia nassauensis); test: GEMMA (gas phase electrophoretic macromolecule analysis); 0.075 mg/ml NrdJd-wt with dGTP (100 μM, and a titration of dGTP), equimolar MgCl2; 40 mM ammonium acetate pH 7.8, 0.005% Tween 20, 0.2 mM DTT
[10] = target: NrdJd-wt, the full-length version of the Stackebrandtia nassauensis class II ribonucleotide reductase (Stackebrandtia nassauensis); test: GEMMA (gas phase electrophoretic macromolecule analysis); 0.075 mg/ml NrdJd-wt with 100 μM dTTP, equimolar MgCl2; 40 mM ammonium acetate pH 7.8, 0.005% Tween 20, 0.2 mM DTT
[11] = target: NrdJdΔCRD, the C-terminally deleted version of the S. nassauensis class II ribonucleotide reductase (Stackebrandtia nassauensis); test: GEMMA (gas phase electrophoretic macromolecule analysis); 0.025 mg/ml NrdJdΔCRD, with or without 100 μM effector (dATP); 40 mM ammonium acetate pH 7.8, 0.005% Tween 20, 0.2 mM DTT
[12] = single preferred NDP substrate (not given), Tris pH 8.0, 20 mM MgCl2, 50 mM DTT (standard conditions), room temperature, upper limit sta

Compound: Nc1nc2c(ncn2[C@H]2C[C@H](O)[C@@H](COP(=O)(O)OP(=O)(O)OP(=O)(O)O)O2)c(=O)[nH]1 [dGTP]
EC50 [1, 12]: < 4 µM

Compound: NrdJdΔCRD, the C-terminally deleted version of the S. nassauensis class II ribonucleotide reductase (domain or fragment)
stoichiometry N [11]: 2

Compound: Cc1cn([C@H]2C[C@H](O)[C@@H](COP(=O)(O)OP(=O)(O)OP(=O)(O)O)O2)c(=O)[nH]c1=O [dTTP]
EC50 [1, 12]: < 4 µM

Now from value to compound, other results behind:

EC50 [1, 12]: < 4 µM
Compound: Nc1ncnc2c1ncn2[C@@H]1O[C@H](COP(=O)(O)OP(=O)(O)OP(=O)(O)O)[C@@H](O)[C@H]1O [ATP]
KL (NrdJdΔCRD): the affinity of the C-terminal truncated enzyme toward each tested effector is reduced

EC50 [2]: 15 ± 4.5 µM | EC50 ([1]; substrate CDP, reductant TCEP, standard assay Tris pH 8.0, 20 mM MgCl2, room temperature): < 4 µM | concentration with half the enzyme as tetramer or hexamer [3]: ~ 17 μmol liter^−1
Compound: Nc1ncnc2c1ncn2[C@H]1C[C@H](O)[C@@H](COP(=O)(O)OP(=O)(O)OP(=O)(O)O)O1 [dATP]

RNR activity of the C933A/C370A mixture, substrate/effector GDP/dTTP (dimers only), TCEP as reductant, dTTP titrated 4 to 1000 μM, relative to NrdJd-wt (3 to 7%) (% of NrdJd-wt) [4]: 3 to 7 | Vmax of RNR activity of the C933A/C370A mixture, substrate/effector CDP/dATP (tetramers and hexamers), TCEP as reductant, relative to NrdJd-wt (% of the wild type) [4]: 30
Compound: S. nassauensis NrdJd C370A, active site cysteine-deficient mutant (enzyme)

EC50 [1, 12]: < 4 µM
Compound: Nc1ccn([C@H]2C[C@H](O)[C@@H](COP(=O)(O)OP(=O)(O)OP(=O)(O)O)O2)c(=O)n1 [dCTP]

stoichiometry N [5]: 4 and 6 | stoichiometry N [6]: 4 | stoichiometry N [7]: 2 | stoichiometry N [8]: 2 | stoichiometry N [9]: 4 and 6 | stoichiometry N [10]: 2
Compound: NrdJd-wt, the full-length version of the Stackebrandtia nassauensis class II ribonucleotide reductase (enzyme)
